What is called Kd is the free concentration of one partner at which half of the binding sites on the other are occupied at equilibrium, for simple one-to-one binding. As usually defined, the koff is the first-order rate constant of dissociation. What is called kon is the second-order rate constant of association.

The target of this test is T1, hK1 (human tissue kallikrein 1), recombinant (human, UniProt P06870 25-262).
T1 construct: Expressed in P. pastoris from KLK1 cDNA and purified; enzymatically active; also called KLK1; Recombinant (Pichia) Kallikrein
Put plainly: SPR.

B1: M0126-C10 (Fab, V domains shown)
VH: EVQLLESGGGLVQPGGSLRLSCAASGFTFSHYKMHWVRQAPGKGLEWVSSIWPSGGGTFYADSVKGRFTISRDNSKNTLYLQMNSLRAEDTAMYYCARTSGGFGAFDIWGQGTMVTVSS
VL: DIQMTQSPSSLSASVGDRVTITCRAGQTINNYLNWYQQKPGKAPNLLIYAASNLQSGVPSRFSGSKSGTDFTLTISSLQPEDFATYHCQQTYRTPFTFGGGTRVEIKG
In the case of B1, the equilibrium dissociation constant (Kd) came out at 14.4 nM, the koff was found to be 0.00648 s⁻¹ and the kon was determined as 451000 M⁻¹ s⁻¹.

B2: M0094-F03 (Fab, V domains shown)
VH: EVQLLESGGGLVQPGGSLRLSCAASGFTFSWYQMSWVRQAPGKGLEWVSSIYPSGGATKYADSVKGRFTISRDNSKNTLYLQMNSLRAEDTAMYYCARMGLHHSFDYWGQGTLVTVSS
VL: DIQMTQSPGTLSLSLGETATLSCRASQTVGGSYLAWYRQKPGQAPSLLIYAASNRAPGIPDRFSGSGSGTDFTLTISSLQSEDFAVYYCQQYGSSMYTFGQGTILEIKR
As for B2, the Kd is 16.7 nM and the koff worked out at 0.00644 s⁻¹.

B3: M0098-C10 (Fab, V domains shown)
VH: EVQLLESGGGLVQPGGSLRLSCAASGFTFSFYSMMWVRQAPGKGLEWVSGISSSGGTTKYADSVKGRFTISRDNSKNTLYLQMNSLRAEDTAVYYCARGGTNYDYVWGSYRSHYYYYGMDVWGQGTTVTVSS
VL: DIQMTQSPSSLSASVGDRVTITCRASHNIYTSLNWLQQKPGKAPKLLIYGASTLENGVPSRFSGSASGTDFTLTISSLQPEDSATYYCQQSYTSVTFGQGTKLEIRR
As for B3, the equilibrium dissociation constant (Kd) turned out to be 16.1 nM, the koff was 0.00193 s⁻¹ and the kon came out at 120000 M⁻¹ s⁻¹.

B4: M0099-D05 (Fab, V domains shown)
VH: EVQLLESGGGLVQPGGSLRLSCAASGFTFSNYIMSWVRQAPGKGLEWVSSIWPSGGHTRYADSVKGRFTISRDNSKNTLYLQMNSLRAEDTAVYYCARAGSYYAGDYWGQGTLVTVSS
VL: DIQMTQSPGTLSLSPGERATLSCRASQTVSSNYLAWYQQKPGLAPRLLIYGVSNRAAGIPDRFSGRGSGTDFTLIINRLEPEDFAVYYCQHYGSSAFTFGRGTKLEIER
B4: the Kd was determined as 17.5 nM, the koff is 0.00578 s⁻¹ and the kon worked out at 331000 M⁻¹ s⁻¹.

B5: M0119-B09 (Fab, V domains shown)
VH: EVQLLESGGGLVQPGGSLRLSCAASGFTFSWYWMYWVRQAPGKGLEWVSVIGSSGGVTKYADSVKGRFTISRDNSKNTLYLQMNSLRAEDTATYYCARGPYRGYFDYWGQGTLVTVSS
VL: DIQMTQSPATLSVSPGEGATLSCRASQSVGNSLAWYQQKPGQAPRVLVYGASTRASGIPARFSGSGSVTEFTLTISSLQSEDFAVYYCQEYNKWPITFGQGTRLERKR
Regarding B5, the dissociation constant Kd was 13.7 nM, the off-rate (koff) is 0.00483 s⁻¹ and the kon was 352000 M⁻¹ s⁻¹.

B6: M0131-A03 (Fab, V domains shown)
VH: EVQLLESGGGLVQPGGSLRLSCAASGFTFSWYTMGWVRQAPGKGLEWVSVIYPSGGMTKYADSVKGRFTISRDNSKNTLYLQMNSLRAEDTAVYYCARTSGGTPWGFWGQGTLVTVSS
VL: AQYELTQPASVSGSPGQSITISCTGTNTDVGGYNYVSWYQQYPGKAPKLMIYEVNHRPSGVSNRFSGSKSGNTASLTISGLQAEDEADYYCSSYTYRNTYVFGTGTKVTVLG
On to B6, for which the dissociation constant (Kd) is 17.4 nM, the koff was 0.046 s⁻¹ and the kon worked out at 2.65e+06 M⁻¹ s⁻¹.

B7: M0117-C04 (Fab, V domains shown)
VH: EVQLLESGGGLVQPGGSLRLSCAASGFTFSHYLMFWVRQAPGKGLEWVSSIWPSGGNTKYADSVKGRFTISRDNSKNTLYLQMNSLRAEDTAVYYCARPAYYYAMDVWGQGTTVTVSS
VL: DIQMTQSPLSLSASVGDRVTITCRASQTFNNYLNWYQQKPGKAPKLLIYAASTLQSGVPSRFSGSGSGTDFTLTISSLQPEDFATYYCQQANSFPFTFGPGTKVDIKR
With B7, the dissociation constant Kd is 16.6 nM, the koff stood at 0.00334 s⁻¹ and the kon turned out to be 201000 M⁻¹ s⁻¹.

B8: M0107-D05 (Fab, V domains shown)
VH: EVQLLESGGGLVQPGGSLRLSCAASGFTFSNYHMQWVRQAPGKGLEWVSSIYPSGGFTRYADSVKGRFTISRDNSKNTLYLQMNSLRAEDTAVYYCARDGGQGGWGQGTLVTVSS
VL: DIQMTQSPSTLSASVGDRVTITCRASQSISSWLAWYQQKPGKVPKLLIHAASTLQSGVPSRFSGSGSGTDFTLTISSLQPEDVATYYCQKYNSAPLTFGGGTKVEIKR
Consider B8, for which the Kd turned out to be 15.3 nM, the koff turned out to be 0.003 s⁻¹ and the on-rate constant (kon) was determined as 195000 M⁻¹ s⁻¹.

B9: M0124-G12 (Fab, V domains shown)
VH: EVQLLESGGGLVQPGGSLRLSCAASGFTFSHYWMRWVRQAPGKGLEWVSSIGSSGGMTKYADSVKGRFTISRDNSKNTLYLQMNSLRAEDTAVYYCARALRWRAFDIWGQGTMVTVSS
VL: DIQMTQSPSSVSASVGDRVTITCRASQGISSWLAWYQQKPGKAPKLLIYAASSLQSGVPSRFSGSGSGTDFTLTISSLQPEDFATYYCQQANSFPLTFGGGTKVEIKR
On to B9, for which the Kd was found to be 17.2 nM, the off-rate (koff) turned out to be 0.0064 s⁻¹ and the on-rate constant (kon) was found to be 372000 M⁻¹ s⁻¹.

B10: M0127-D05 (Fab, V domains shown)
VH: EVQLLESGGGLVQPGGSLRLSCAASGFTFSHYYMMWVRQAPGKGLEWVSSIGPSGGMTDYADSVKGRFTISRDNSKNTLYLQMNSLRAEDTAVYYCATGGTASLDYWGQGTLVTVSS
VL: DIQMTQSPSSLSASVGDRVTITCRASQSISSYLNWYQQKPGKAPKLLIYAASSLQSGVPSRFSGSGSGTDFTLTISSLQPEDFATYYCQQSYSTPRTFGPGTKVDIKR
Consider B10, for which the dissociation constant (Kd) worked out at 14.4 nM, the koff is 0.000921 s⁻¹ and the on-rate (kon) was 63900 M⁻¹ s⁻¹.

B11: M0122-G06 (Fab, V domains shown)
VH: EVQLLESGGGLVQPGGSLRLSCAASGFTFSWYAMHWVRQAPGKGLEWVSVISPSGGATRYADSVKGRFTISRDNSKNTLYLQMNSLRAEDTAVYYCVRASTVTTLFQHWGQGTLVTVSS
VL: AQSALTQPASVSGSPGQSITISCTGTSSDVGGYNYVSWYQQHPGKAPKLMIYDVSKRPSGVSNRFSGSKSGNTASLTISGLQAEDEADYYCSSYTSSITLVVFGGGTKLTVLS
With B11, the Kd is 15.2 nM, the koff was 0.107 s⁻¹ and the kon stood at 7.08e+06 M⁻¹ s⁻¹.

B12: M0095-H10 (Fab, V domains shown)
VH: EVQLLESGGGLVQPGGSLRLSCAASGFTFSNYKMQWVRQAPGKGLEWVSSIYSSGGKTVYADSVKGRFTISRDNSKNTLYLQMNSLRAEDTAVYYCARTPGYNYFDYWGQGTLVTVSS
VL: DIQMTQSPSTLSASVGDRVTITCRASQSISSWLAWYQQKPGKAPKLLIYTASSLESGVPSRFSAGGSGTEFTLTISSLQPDDFGTYYCQQYNSYSLTFGGGTKVEIKR
Regarding B12, the equilibrium dissociation constant (Kd) was 16.5 nM, the off-rate constant (koff) is 0.00918 s⁻¹ and the association rate constant (kon) amounted to 556000 M⁻¹ s⁻¹.

B13: M0131-C08 (Fab, V domains shown)
VH: EVQLLESGGGLVQPGGSLRLSCAASGFTFSWYSMTWVRQAPGKGLEWVSSISPSGGATKYADSVKGRFTISRDNSKNTLYLQMNSLRAEDTAVYYCARGGAASLPFDYWGQGTLVTVSS
VL: DIQMTQSPSSVSASVGDRVTITCRASQDVLVSFAWYQQRPGTAPKLLIYAASHLHPGVPSRFSASGSGTDFTLTINGLQPEDFATYYCQQARSFPHTFGQGTRLEKKR
For B13, the dissociation constant (Kd) was 17.7 nM, the dissociation rate constant (koff) came to 0.00466 s⁻¹ and the association rate constant (kon) was 264000 M⁻¹ s⁻¹.

B14: M0097-E07 (Fab, V domains shown)
VH: EVQLLESGGGLVQPGGSLRLSCAASGFTFSWYQMMWVRKAPGKGLEWVSYIRSSGGKTDYADSVKGRFTISRDNSKNTLYLQMNSLRAEDTAVYYCARVGVWYGMDVWGQGTTVTVSS
VL: DIQMTQSPSSLSASVGDRVTITCRASQSISSYLSWFQQRPGKAPKLLIYSASNLQSGVPLRFSGSGSGTDFTLTISSLQPEDFATYYCQQIYRTPLTFGGGTKVEIKR
For the molecule B14, the Kd was determined as 13.9 nM, the koff amounted to 0.00815 s⁻¹ and the on-rate (kon) came to 585000 M⁻¹ s⁻¹.

B15: M0117-A12 (Fab, V domains shown)
VH: EVQLLESGGGLVQPGGSLRLSCAASGFTFSNYKMSWVRQAPGKGLEWVSGIYPSGGLTQYADSVKGRFTISRDNSKNTLYLQMNSLRAEDTAVYYCAKVGVWYGMDVWGQGTTVTVSS
VL: DIQMTQSPGTLSLSPGDRATLSCRASQSVGSDYLAWYQQKPGQAPRLLIYGASSRATGIPDRFSGSGSGTDFTLTISRLEPEDFAVYYCQQYGSSLYTFGQGTKLEIKR
On to B15, for which the Kd amounted to 14.2 nM, the koff stood at 0.00345 s⁻¹ and the kon was 243000 M⁻¹ s⁻¹.

B16: M0112-C12 (Fab, V domains shown)
VH: EVQLLESGGGLVQPGGSLRLSCAASGFTFSRYMMYWVRQAPGKGLEWVSSIYPSGGKTLYADSVKGRFTISRDNSKNTLYLQMNSLRAEDTAVYYCARVGVWYGMDVWGQGTTVTVSS
VL: DIQMTQSPGTLSLSPGERATLSCRASQSVSSSYLAWYQQKPGQAPRLLIYGASSRATGIPDRFSGSGSGTEFTLTISSLQSEDSAVYYCQQYNNWPPLTFGGGTKVEIKR
With B16, the dissociation constant Kd came to 16 nM, the koff was 0.00465 s⁻¹ and the on-rate constant (kon) came out at 290000 M⁻¹ s⁻¹.

B17: M0102-A04 (Fab, V domains shown)
VH: EVQLLESGGGLVQPGGSLRLSCAASGFTFSHYVMNWVRQAPGKGLEWVSRIYPSGGVTVYADSVKGRFTISRDNSKNTLYLQMNSLRAEDTAVYYCARGYGMDVWGQGTMVTVSS
VL: AQSELTQPPSASGTPGQRVTISCSGSSSNIGSNYVYWYQQYPGTVPKLLIHSNNQRPSGVPDRFSGPKSGTSASLAISGLRSEDEADYYCATWDNSLSAWVFGGGTKLTVLR
Turning to B17, the dissociation constant Kd came out at 13.3 nM, the koff amounted to 0.00435 s⁻¹ and the on-rate constant (kon) worked out at 327000 M⁻¹ s⁻¹.

B18: M0127-H05 (Fab, V domains shown)
VH: EVQLLESGGGLVQPGGSLRLSCAASGFTFSHYLMGWVRQAPGKGLEWVSSIWPSGGHTSYADSVKGRFTISRDNSKNTLYLQMNSLRAEDTAVYYCARHYGMDVWGQGTTVTVSS
VL: DIQMTQSPSSLSASVGDRVTITCRASQSISSYLNWYQQKPGKVPKLLIYAASSLQSGVPSRFSGSGSGTDFTLTISSLQPDDFATYYCQQTFSTWTFGQGTKVEIRR
For B18, the Kd came out at 15.3 nM, the koff amounted to 0.00439 s⁻¹ and the kon was found to be 287000 M⁻¹ s⁻¹.

B19: M0126-B12 (Fab, V domains shown)
VH: EVQLLESGGGLVQPGGSLRLSCAASGFTFSHYVMGWVRQAPGKGLEWVSSIYPSGGKTTYADSVKGRFTISRDNSKNTLYLQMNSLRAEDTAVYYCASPSTGSWSAFDIWGQGTMVTVSS
VL: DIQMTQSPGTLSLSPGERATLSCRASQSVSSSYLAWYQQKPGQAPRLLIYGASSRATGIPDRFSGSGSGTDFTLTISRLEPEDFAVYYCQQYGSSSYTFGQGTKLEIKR
As to B19, the equilibrium dissociation constant (Kd) worked out at 15 nM, the koff came to 0.00579 s⁻¹ and the kon is 385000 M⁻¹ s⁻¹.
